Reference: patent publication US20240132859A1, “MODIFIED DEHALOGENASE WITH EXTENDED SURFACE LOOP REGIONS” (Promega Corporation, priority 2022, published 2024)
Positions count from the first letter of the chain named. Numbers in names are those of the source.

Legend:
[1] = system: HeLa cells expressing HiBiT-tagged GAPDH; assay: Complementation-based chimeras transfected into genome edited HeLa cells expressing HiBiT-tagged GAPDH: expression, brightness, BRET; format: cell-based
Protocol: FIG. 23 A-G. Characterization of transiently expressed complementation-based chimeras incorporating flexible linkers and LgBiT+4 circularly permuted at two alternative sites (i.e., 67/68 or 49/50). Constructs encoding the chimeras were transfected into genome edited HeLa cells expressing HiBiT-tagged GAPDH. Cells were evaluated for expression, brightness, and efficiency of intramolecular BRET to a bound TMR ligand. (A) Structure of the HALOTAG-cpLGBIT chimeras. (B) Expression levels. Lysates from cells labeled with 1 μM HaloTag-TMR ligand were resolved on SDS-PAGE and scanned on a fluorescent imager. Expression levels quantitated using Image J software were normalized to the expression of HaloTag178-cpLgBIT+4 67/68-179. (C) Total luminescence from cells treated with 20 μM fluorofurimazine. (D) Intramolecular BRET efficiencies for cells treated with 500 nM HaloTag-TMR ligand.

[2] = Total luminescence (brightness) of purified fusions and chimeras treated with fluorofurimazine; format: biochemical; conditions: 6 nM chimeras complemented with 60 nM VS-HiBiT; compared with HT-178(L1-3)cpLgBiT+4 67/68-179
Excerpt: (§1) FIG. 9A-D. Characteristics of HaloTag-NLuc fusions and chimeras generated by insertion of circularly-permuted NanoLuc (cpNLuc), circularly-permuted thermostable NanoLuc (cptsNLuc), and circularly-permuted thermostable NanoLuc with a point mutation, F164C (cptsNLuc(F164C)) into loops 165 and 180. Fusion and chimeras were expressed in E. coli, purified, and compared for binding kinetics of a chloroalkane-TMR ligand, brightness of luminescence, and efficiency of intramolecular BRET to a bound TMR ligand. (A) Chimera structures (B) Binding kinetics of 2.5 nM chloroalkane-TMR to 20 nM fusions, and chimeras monitored via fluorescent polarization (C) Total luminescence for 6 nM fusions, and chimeras treated with 20 μM fluorofurimazine (D) Intramolecular BRET efficiencies for 6 nM fusions, and chimeras that were labeled with 5-fold molar excess of chloroalkane-TMR and treated with 20 μM fluorofurimazine.
(§2) FIG. 13A-B. Luminescence and BRET efficiencies of HaloTag-LgBiT fusions, and chimeras generated by insertion of LgBiT and circularly-permuted LgBiT (cpLgBiT) into loop 180. […]
(§3) FIG. 19 A-E. Biochemical characterization of chimeras generated by inserting a circularly permuted NanoLuc to HaloTag's loops 180 and 194/195. […] (C) Binding kinetics of 2.5 nM HaloTag-TMR ligand to 20 nM chimeras monitored via fluorescent polarization. […]

VS-HiBiT peptide = assay: Binding affinity of complementation-based chimeras to VS-HiBiT peptide; conditions: compared with HT-178(L1-3)cpLgBiT+4 67/68-179
Protocol: FIG. 22 A-I. Biochemical characterization of complementation-based chimeras incorporating flexible linkers and LgBiT+4 circularly permuted at two alternative sites (i.e., 67/68 or 49/50). (A) Structure of the HALOTAG-cpLGBIT chimeras. (B-C) Influence of flexible linkers on binding kinetics of 2.5 nM HaloTag-TMR ligand to 20 nM chimeras, which were complemented with 200 nM VS-HiBiT. (C-D) Influence of flexible linkers on binding affinity to a VS-HiBiT peptide. (E-F) Total luminescence for 6 nM chimeras complemented with 60 nM VS-HiBiT and treated with 20 μM fluorofurimazine. (G-I) Intramolecular BRET efficiencies for 6 nM chimeras complemented with 60 nM VS-HiBiT and covalently labeled with HaloTag-TMR ligand.
FIG. 25 A-E. Influence of additional LgTrip mutations on biochemical properties of the lead complementation-based chimera HaloTag178(L1-3)-cpLgBiT+4-179. Annotations of the additional mutations are based on a full length non disrupted NanoLuc protein (A) Structure of the HALOTAG-cpLGBIT chimeras (B) Influence of mutations on binding affinities to the VS-HiBiT peptide. (C) Influence of mutations on brightness and efficiency of intramolecular BRET to a bound TMR ligand for 6 nM chimeras complemented with 60 nM VS-HiBiT. (D-E) Binding kinetics of 2.5 nM HaloTag-TMR ligand to 20 nM or 80 nM chimeras, which were complemented with 200 nM or 800 nM VS-HiBiT, respectively.
FIG. 26 A-C. […]

[3] = Intramolecular BRET efficiency of purified fusions and chimeras to a bound TMR ligand; format: biochemical; conditions: 6 nM chimeras complemented with 60 nM VS-HiBiT; compared with HT-178(L1-3)cpLgBiT+4 67/68-179
Excerpt: as §1, §2, §3

[4] = mammalian cells, among the tested HALOTAG-cpLGBIT chimeras

B1: HaloTag-178-(L1-3)cpLgBiT+4 67/68 (E4D, Q42M, M106K, T144D)-179: SEQ ID NO: 93 (protein)
chain: GSEIGTGFPFDPHYVEVLGERMHYVDVGPRDGTPVLFLHGNPTSSYVWRNIIPHVAPTHRCIAPDLIGMGKSDKPDLGYFFDDHVRFMDAFIEALGLEEVVLVIHDWGSALGFHWAKRNPERVKGIAFMEFIRPIPTWDEWPEFARETFQAFRTTDVGRKLIIDQNVFIEGTLPMGVVGGSSADQMAQIEEVFKVVYPVDDHHFKVILPYGTLVIDGVTPNKLNYFGRPYEGIAVFDGKKITVTGTLWNGNKIIDERLIDPDGSMLFRVTINSGGTGGSGGTGGSMVFTLDDFVGDWEQTAAYNLDQVLEQGGVSSLLQNLAVSVTPIMRIVRSGENALKIDIHVIIPYEGLRPLTEVEMDHYREPFLNPVDREPLWRFPNELPIAGEPANIVALVEEYMDWLHQSPVPKLLFWGTPGVLIPPAEAARLAKSLPNCKAVDIGPGLNLLQEDNPDLIGSEIARWLSTLEISG
- expression ([1]; genome-edited HeLa cells expressing HiBiT-tagged-GAPDH): highest
- BRET efficiency [1, 4]: highest
- brightness [1, 4]: highest

B2: HaloTag-178-(L1-3)cpLgBiT+4 67/68 (E4D, Q42M, M106K, T144D, R112H, V127T, K123E)- 179: SEQ ID NO: 106 (protein)
chain: B1 chain with R228H, K239E, V243T
- brightness [2]: similar
- binding affinity to VS-HiBiT (VS-HiBiT peptide): significantly higher affinity
- BRET efficiency [3]: similar
